Residue numbers refer to the chain shown, from its start. “And” between values parts separate entries of the source, which are not always exact repeats. Identical values can stand only once.
T1: Human BMP10 (human, UniProt O95393 317-424)
T1 sequence (looked up): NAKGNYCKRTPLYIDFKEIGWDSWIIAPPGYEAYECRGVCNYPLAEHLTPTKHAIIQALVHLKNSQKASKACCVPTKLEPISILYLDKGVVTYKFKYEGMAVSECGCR

T2: GDF10 (UniProt P55107 369-478)
T2 sequence (looked up): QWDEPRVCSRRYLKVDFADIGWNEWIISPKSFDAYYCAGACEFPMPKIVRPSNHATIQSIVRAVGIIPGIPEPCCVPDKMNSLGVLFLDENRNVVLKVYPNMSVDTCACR

T3: Human Activin B (human, UniProt P09529 293-407)
T3 sequence (looked up): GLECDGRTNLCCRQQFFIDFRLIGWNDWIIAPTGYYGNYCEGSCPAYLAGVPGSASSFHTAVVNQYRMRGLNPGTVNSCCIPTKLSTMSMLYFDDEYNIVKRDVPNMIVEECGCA

T4: Human Activin A Fc (human, UniProt P08476 311-426)
T4 construct: not shown: Fc part
T4 sequence (looked up): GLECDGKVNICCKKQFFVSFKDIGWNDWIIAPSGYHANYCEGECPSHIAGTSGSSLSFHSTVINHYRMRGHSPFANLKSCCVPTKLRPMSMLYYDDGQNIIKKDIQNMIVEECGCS

T5: GDNF (UniProt P39905 78-211)
T5 sequence (looked up): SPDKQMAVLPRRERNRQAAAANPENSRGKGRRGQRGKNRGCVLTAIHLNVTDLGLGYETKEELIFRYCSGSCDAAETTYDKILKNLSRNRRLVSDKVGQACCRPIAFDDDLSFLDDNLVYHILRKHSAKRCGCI

T6: Human BMP9 (human, UniProt Q9UK05 320-429)
T6 sequence (looked up): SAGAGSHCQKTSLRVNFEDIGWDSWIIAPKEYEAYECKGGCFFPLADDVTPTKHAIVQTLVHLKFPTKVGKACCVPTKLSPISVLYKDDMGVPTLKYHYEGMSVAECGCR

T7: Human GDF15 Fc (human, UniProt Q99988 195-308, limits assumed, biotinylated (EZ-Link Sulfo-NHS-Biotinylation Kit) in the SPR assay)
T7 construct: also called human GDF15-Fc fusion; biotinylated Human GDF15 Fc; not shown: Fc part
T7 sequence: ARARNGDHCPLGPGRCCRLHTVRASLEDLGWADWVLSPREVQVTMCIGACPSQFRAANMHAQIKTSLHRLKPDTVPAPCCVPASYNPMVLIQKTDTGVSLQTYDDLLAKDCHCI

T8: Cyno GDF15 Fc (cyno, UniProt G7PWZ3 193-308, limits assumed)
T8 construct: also called cyno GDF15-Fc fusion; not shown: Fc part
T8 sequence: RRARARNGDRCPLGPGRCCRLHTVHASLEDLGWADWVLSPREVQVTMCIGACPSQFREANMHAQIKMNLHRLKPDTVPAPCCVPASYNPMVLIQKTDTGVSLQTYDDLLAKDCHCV

T9: Mouse GDF15 Fc (mouse, UniProt Q9Z0J7 189-303, limits assumed)
T9 construct: also called mouse GDF15-Fc fusion; not shown: Fc part
T9 sequence (looked up): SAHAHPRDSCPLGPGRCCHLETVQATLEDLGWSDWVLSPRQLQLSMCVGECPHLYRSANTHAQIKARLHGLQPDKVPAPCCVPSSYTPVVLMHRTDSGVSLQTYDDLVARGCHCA

T10: GDF15 (ligand used in the GFRAL/RET cell assays) (UniProt Q99988 197-308, limits assumed)
T10 sequence (looked up): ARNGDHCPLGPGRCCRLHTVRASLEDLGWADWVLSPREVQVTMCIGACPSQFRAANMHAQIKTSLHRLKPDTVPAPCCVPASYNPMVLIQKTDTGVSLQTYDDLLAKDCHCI

B1: GDF15 antibody agent Clone H, IgG (antibody, V domains shown)
VH: QVQLVQSGAEVKKPGSSVKVSCKASGGTFSSYYISWVRQAPGQGLEWMGGIAPISGTASYAQKFQGRVTITADESTSTAYMELSSLRSEDTAVYYCARGLAYDGYFDLWGRGTLVTVSS
VL: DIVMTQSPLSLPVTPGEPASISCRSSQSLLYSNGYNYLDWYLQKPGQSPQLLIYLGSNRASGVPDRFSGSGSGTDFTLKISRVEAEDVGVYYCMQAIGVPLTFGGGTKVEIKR
B2: GDF15 antibody agent Clone E, IgG (antibody, V domains shown)
VH: QVQLVQSGAEVKKPGASVKVSCKASGYTFTSYGINWVRQAPGQGLEWMGWITAYSGDTNYAQKLQGRVTMTTDTSTSTAYMELRSLRSDDTAVYYCARGPGQYADVDVWGQGTMVTVSS
VL: DIQMTQSPSSVSASVGDRVTITCRASQGISSWLAWYQQKPGKAPKLLIYAASSLQSGVPSRFSGSGSGTDFTLTISSLQPEDFATYYCQQANSFPITFGGGTKVEIKR
B3: GDF15 antibody agent Clone O, IgG (antibody, V domains shown)
VH: QVQLVQSGAEVKKPGATVKVSCKASGYTFDSLGMSWVRQAPGQGLEWMGYISTYSGDTVYAQKLQGRVTMTTDTSTSTAYMELRSLRSDDTAVYYCARESGQQVSALDPWGQGTLVTVSS
VL: B2 VL with S31R, A91G, N92A, I96L
B4: GDF15 antibody agent Clone T, IgG (antibody, V domains shown)
VH: B2 VH
VL: B2 VL with N92S, S93Q
B5: GDF15 antibody agent Clone S, IgG (antibody, V domains shown)
VH: B2 VH
VL: B2 VL with M4L, S31P
B6: GDF15 antibody agent Clone P, Fab (Fab, V domains shown)
VH: B3 VH with L32Y, M34I, S35H, Y50W, S52T, T53A, Q103T, V104S, D108G
VL: DIQMTQSPSSVSASVGDRVTITCRASQGISRWLAWYQQKPGKAPKLLIYAASSLQSGVPSRFSGSGSGTDFTLTISSLQPEDFATYYCQQGASFPLTFGGGTKVEIK
notes: Fab; CH1 and CL of the Fab not specified; also called Fab of Clone P
B7: GDF15 antibody agent Clone T, Fab (Fab, V domains shown)
VH: B2 VH
VL: B6 VL with R31S, G91A, A92S, S93Q, L96I
notes: Fab; CH1 and CL of the Fab not specified; also called Fab of Clone T
B8: GDF15 antibody agent Clone J, Fab (Fab, V domains shown)
VH: B2 VH with T52D, D57S
VL: B6 VL with R31S, G91A, A92N, L96I
notes: Fab; CH1 and CL of the Fab not specified; also called Fab of Clone J
B9: GDF15 antibody agent Clone S, Fab (Fab, V domains shown)
VH: B2 VH
VL: B6 VL with M4L, R31P, G91A, A92N, L96I
notes: Fab; CH1 and CL of the Fab not specified; also called Fab of Clone S

biological target: T1, Human BMP10; assay: BLI Octet; IgG on sensor

binding result | Binder
no binding (tested: 100 nM) | B1
no binding (tested: 100 nM) | B2
no binding (tested: 100 nM) | B3
no binding (tested: 100 nM) | B4
no binding (tested: 100 nM) | B5

biological target: T2, GDF10; assay: BLI Octet; IgG on sensor

binding result | Binder
no binding (tested: 100 nM) | B1
no binding (tested: 100 nM) | B2
no binding (tested: 100 nM) | B4
no binding (tested: 100 nM) | B5

biological target: GDF8 (UniProt O14793 267-375); assay: BLI Octet; IgG on sensor

binding result | Binder
no binding (tested: 100 nM) | B1
no binding (tested: 100 nM) | B2
no binding (tested: 100 nM) | B3
no binding (tested: 100 nM) | B4
no binding (tested: 100 nM) | B5

biological target: T3, Human Activin B; assay: BLI Octet; IgG on sensor

binding result | Binder
no binding (tested: 100 nM) | B1
no binding (tested: 100 nM) | B2
no binding (tested: 100 nM) | B3
no binding (tested: 100 nM) | B4
no binding (tested: 100 nM) | B5

biological target: T4, Human Activin A Fc; assay: BLI Octet; IgG on sensor

binding result | Binder
no binding (tested: 100 nM) | B1
no binding (tested: 100 nM) | B2
no binding (tested: 100 nM) | B3
no binding (tested: 100 nM) | B4
no binding (tested: 100 nM) | B5

biological target: T5, GDNF; assay: BLI Octet; IgG on sensor

binding result | Binder
no binding (tested: 100 nM) | B1
no binding (tested: 100 nM) | B2
no binding (tested: 100 nM) | B3
no binding (tested: 100 nM) | B4
no binding (tested: 100 nM) | B5

biological target: T6, Human BMP9; assay: BLI Octet; IgG on sensor

binding result | Binder
no binding (tested: 100 nM) | B1
no binding (tested: 100 nM) | B2
no binding (tested: 100 nM) | B3
no binding (tested: 100 nM) | B4
no binding (tested: 100 nM) | B5

biological target: T11, GDF11 (UniProt O95390 299-407); assay: BLI Octet; IgG on sensor
T11 construct: Also used as ligand in the Activin 2B receptor/SMAD reporter assay
T11 sequence (O95390 299-407 limits assumed): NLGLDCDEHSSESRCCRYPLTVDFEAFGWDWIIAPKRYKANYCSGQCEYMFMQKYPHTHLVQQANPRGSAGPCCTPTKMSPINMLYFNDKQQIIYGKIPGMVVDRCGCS

binding result | Binder
no binding (tested: 100 nM) | B1
no binding (tested: 100 nM) | B2
no binding (tested: 100 nM) | B3
no binding (tested: 100 nM) | B4
no binding (tested: 100 nM) | B5

biological target: T7, Human GDF15 Fc; assay: SPR Biacore 8K; biotinylated antigen captured, Fab analyte
Description: Kinetic analysis was conducted at 25° C. in HBS-EP+running buffer (10 mM HEPES pH 7.4, 150 mM NaCl, 3 mM EDTA, 0.05% Surfactant P20) using a Biacore 8K optical biosensor (Cytiva, Marlborough, MA). The sample compartment was maintained at 10° C. for the duration of the experiment. The Biacore 8K can analyze up to 8 separate interactions in a single cycle.
Each experiment cycle began with an injection (300 s at 2 μL/min) overflow cells 1 and 2 of a 1:100 solution of biotin CAPture reagent (Cytiva) in running buffer. This was followed by an injection (45 s at 10.0 μL/min) of biotinylated human GDF15 (5 nM) overflow cell 2. […] The dissociation of the antibodies were monitored for 3420 s. Finally, an injection (120 s at 10 μL/min) of regeneration solution (6 M Guanidine-HCl in 0.25 M NaOH) overflow cells 1 and 2 prepared the sensor surface for another cycle. Several blank buffer samples were injected (300 s at 30 μL/min) overflow cells 1 and 2 throughout the duration of the experiment and used for reference surface subtraction—each were monitored for the same amount of dissociation time (3420 s) and regenerated under the same conditions as those for the Fab sample injections.

Kd [pM] | koff [s⁻¹] | kon [M⁻¹ s⁻¹] | Binder
126 | 0.0021 | 1.66e+07 | B6
41.1 | 4.52e-05 | 1.1e+06 | B7
88.4 | 0.000404 | 4.57e+06 | B8
36.9 | 4.93e-05 | 1.34e+06 | B9

biological target: T7, Human GDF15 Fc; assay: BLI Octet; IgG on sensor, 100 nM antigen (avid)
Description: Briefly, ForteBio affinity measurements were performed by loading IgGs on-line onto AHC sensors. Sensors were equilibrated off-line in assay buffer for 30 min and then monitored on-line for 60 seconds for baseline establishment. Sensors with loaded IgGs were exposed to 100 nM antigen for 3 minutes, and afterwards were transferred to assay buffer for 3 min for off-rate measurement. All kinetics were analyzed using the 1:1 binding model.

Kd [pM] | Binder
235 | B1
278 | B2
279 | B3

biological target: T8, Cyno GDF15 Fc; assay: BLI Octet; antigen on sensor, 100 nM Fab (monovalent)

Kd [pM] | Binder
1720 | B6
369 | B7
769 | B8
252 | B9

biological target: T9, Mouse GDF15 Fc; assay: as above

Kd [pM] | Binder
1920 | B7
1360 | B9

biological target: T7, Human GDF15 Fc; assay: as above

Kd [pM] | Binder
3680 | B6
613 | B7
1280 | B8
480 | B9

biological target: T10, GDF15 (ligand used in the GFRAL/RET …); assay: cell-based or functional assay

GDF15-GFRAL RET pERK IC50 (pM) | GDF15-GFRAL-RET Luciferase IC50 (pM) | GDF15 GFRAL RET pERK Fab IC50 pM | Binder
254 | 200 |  | B1
 |  | 701 pM and 1000 pM | B6
35 | 190 |  | B2
 | 150 |  | B3
 |  | 75.1 pM | B8
